# Measurements: publication PMC11098746 (2024)
# No end group written: not given here.
# T1: ADP156
# T1 chain: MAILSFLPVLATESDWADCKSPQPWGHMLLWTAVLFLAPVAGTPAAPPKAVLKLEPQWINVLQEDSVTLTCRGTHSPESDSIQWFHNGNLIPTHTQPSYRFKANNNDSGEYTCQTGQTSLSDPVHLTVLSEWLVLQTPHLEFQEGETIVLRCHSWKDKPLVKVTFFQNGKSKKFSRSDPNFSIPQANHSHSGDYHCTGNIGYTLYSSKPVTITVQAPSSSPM
# T2: ADP341
# T2 chain: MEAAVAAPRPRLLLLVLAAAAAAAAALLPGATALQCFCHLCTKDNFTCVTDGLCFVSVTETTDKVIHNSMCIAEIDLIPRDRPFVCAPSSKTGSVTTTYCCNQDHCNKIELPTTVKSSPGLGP
# T3: ADP267
# T3 chain: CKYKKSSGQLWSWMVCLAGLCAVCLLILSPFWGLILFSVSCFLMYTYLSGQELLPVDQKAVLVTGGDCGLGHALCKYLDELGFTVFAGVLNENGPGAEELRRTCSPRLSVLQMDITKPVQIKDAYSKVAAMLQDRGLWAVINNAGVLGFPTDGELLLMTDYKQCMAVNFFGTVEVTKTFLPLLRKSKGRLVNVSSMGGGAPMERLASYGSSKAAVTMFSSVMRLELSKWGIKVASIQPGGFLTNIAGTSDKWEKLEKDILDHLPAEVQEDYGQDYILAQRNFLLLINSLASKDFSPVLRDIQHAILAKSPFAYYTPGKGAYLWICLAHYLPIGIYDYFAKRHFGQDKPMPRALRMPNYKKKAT
# T4: ADP298
# T4 chain: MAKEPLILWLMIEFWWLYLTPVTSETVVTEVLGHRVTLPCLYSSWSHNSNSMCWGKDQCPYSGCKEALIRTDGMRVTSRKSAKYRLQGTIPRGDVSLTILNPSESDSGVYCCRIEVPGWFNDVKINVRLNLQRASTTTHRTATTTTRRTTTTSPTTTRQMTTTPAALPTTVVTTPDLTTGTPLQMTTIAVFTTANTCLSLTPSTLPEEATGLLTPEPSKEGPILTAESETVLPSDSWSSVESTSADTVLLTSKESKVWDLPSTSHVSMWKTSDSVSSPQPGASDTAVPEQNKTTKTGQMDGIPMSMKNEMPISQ
# T5: ADP389
# T5 chain: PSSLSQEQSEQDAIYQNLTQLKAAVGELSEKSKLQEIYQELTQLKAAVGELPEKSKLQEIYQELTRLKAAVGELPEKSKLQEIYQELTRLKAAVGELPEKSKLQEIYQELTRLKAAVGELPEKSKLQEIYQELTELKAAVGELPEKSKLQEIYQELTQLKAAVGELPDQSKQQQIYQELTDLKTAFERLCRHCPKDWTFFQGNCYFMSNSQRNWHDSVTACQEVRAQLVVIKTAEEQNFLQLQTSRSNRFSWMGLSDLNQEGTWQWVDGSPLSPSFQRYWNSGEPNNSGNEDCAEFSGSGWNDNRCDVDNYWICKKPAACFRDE
# T6: ADP098
# T6 chain: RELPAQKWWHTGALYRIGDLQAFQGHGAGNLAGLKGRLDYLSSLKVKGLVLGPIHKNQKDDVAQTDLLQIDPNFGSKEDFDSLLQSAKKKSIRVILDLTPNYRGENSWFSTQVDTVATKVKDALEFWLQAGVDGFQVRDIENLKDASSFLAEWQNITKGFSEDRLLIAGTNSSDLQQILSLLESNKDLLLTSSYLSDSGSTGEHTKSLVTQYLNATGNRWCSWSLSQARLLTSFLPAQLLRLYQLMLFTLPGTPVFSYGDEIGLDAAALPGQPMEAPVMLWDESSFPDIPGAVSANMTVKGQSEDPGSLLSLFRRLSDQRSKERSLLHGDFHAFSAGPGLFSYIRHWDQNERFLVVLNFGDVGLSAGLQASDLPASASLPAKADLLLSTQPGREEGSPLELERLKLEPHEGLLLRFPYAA
# B1: ADP183 (protein)
# chain: AEEHEITHKTYFDITIDDKPLGRIVFGLYGKVAPKTVENFVSICKGTVVDGKMLHYTNSIFHRIIPNFMAQGGDITNFNGAGGLSIYGKKFEDENFKVNHAKRGLLSMANAGKNTNGAQFFILFIPTPWLDGRHVVFGEVVEGLDKLVHIEAVGTDSGEPLKRVLVKESGELPL
# modifications: bait human Fc-tagged dimer; N-glycosylation sequons mutated in Plasmodium baits
# B2: ADP397 (protein)
# chain: YLSSENQKKTIATVHNNARTNTLKKNNANNNNANDIFGLSPSEVPNLIDDEEEYEILEGVKNNADLTRSTNIDHPSPSSTMIDLDNIITEISKLKKKKLKKEMNNKLEQQTNQNNNAIHHNNENEINTFTQNIKTNSNELKNQDSSNSLISTNSNTMDELLLYSTNSEDNLDISFGELQLYENSDEDTSDYEYVNEDYSVNHIFSNDAEESFNILEDVENIALSSSNRYQYSPIGPYKKKHTKVFENFKMTRNYDEFLKLYNLKDSSDNQEEYYELLAGEPFKLNSYYYRDVKYENVKKYIFKEIYDNIQNIATENKIIVSKKEELFFYFIKSLLKNNFICLSYEEEENLLSESKLLLEAMISKKIQ
# modifications: bait human Fc-tagged dimer; N-glycosylation sequons mutated in Plasmodium baits
# B3: ADP236 (protein)
# chain: EFVKGSYESKGYPLIHLMNNNEYTGSANNFIKNNLINLLYIYKDVKFDEEKTLGIDSFLDIEDDTKIERLIKEKMLYINKYINSRQMIKYSGFIYLYEIIEKKNFYFLLHFLMTNNNNGLIIILPEDMYINVDEYYRINKINKLNDQNKKNKVVSQDLLEKRIMFVQSLILNMKLQQSIYFIKNNKDIEKIYENYQSKFAYFDLTRNVAISPISKIQNVYKMNSKSLYYFLNKNNNIHINTIFNKQQDNQAFLLTKQKTIIICADFNVFNIFSDLPSNTAFTNSNLITIQNLIKLFYDVYNKEQVNYNILFFFTNYYYGIQDFLNSINVIFKENIEFVICLDNLNNADFYIYESNKAQPQNVQAFYRILNNIVKGSIKKNVQMVNEKIKIHSKHLPSLHEYFVLNKINSFSLSSSKKNNNMIFLNKFPMLQPKLNIQNVKNNIAIIFKSLYLYMTQKKTDQKENTQQEQSIEKNEKEKSMLTYINKNMASNDDMNTIDYNLNKYNKFFIYKEDTLKLFNYFKTIINSNIADTNFLIKDYKLTTDKKQKFFYQKYAHVTFSMAISYVFH
# modifications: bait human Fc-tagged dimer; N-glycosylation sequons mutated in Plasmodium baits
# B4: ADP398 (protein)
# chain: SNHIKSVNRCFIPFISEYIYKQKNRKNNIAYDSSNSHYNDKIIPCGNYNKQLKYKINFCRNLYFNNKNEYNRICSRNKLNFHNIQTDNTIYKPKKKYYEVGKVREKIKMYTLFKDDKINTLKCNEEESVTSETINKHDSSVKVKGRRKKNIASNENIMNPNNKAVSSINTNLADSSNNKNDNSLNSKKNDNTLNSKKNDNTLNSKKNDNTLNSKNNNNALNSKNNNNALNSKKSNNAYNDKHIDHIIPEGKNKINNNIDVKHNINNKLNEINEEPYEDTHNKEENSANKNDNDEKRKEENNNIARRYIKNDQMSYNNINTNSNEYDKNAATLDETYIGKTFEGYVYSVNKNAACIKLKNINKYGLLFKNKANLGDDIEDMNDFFEKDQPVHVKILGINTKKNIFYLGNIIKYNENIKLSKGEYSKGLITKVCDSYCFIKVLKNGATGYLHKSKLFCMNDKEKKNNDNQNYDNPNNDNPNYDNQNYDNQNYNNPNYDHPNYDNQNYDNQNYNNPNNDYSTSQLYNSDNLQMDFIYKLQFTKIFNIWDIIDVEILGTPQNDYKSNYILTIPRGSKTFKKILNYLNVLKENEDINNIQYKGDYIYSIDNNKNDNIIDSDINNHHINNKKKKKNLYDIQNNMNHAPFNKFHTEDEYLFNDHVQENVHTFYEKNKKYKITYDKENNHKMNKAYYLKKNKELPFNNKFKKIIKNIYDLPNTISLSMLSKTIKIPLASIKKYFIIHENKEYNSAYKINSEQIKRICQHFKIDCNVEQRDDNVVTKVNGATKDCQEKVFKNVAQDRLKEGEQERVIKVEAKIKNDEMVMQEQKDTKEEKHMDVQFIEEKDINVQHINVQDMDVQDMDVQDINVQDMDVQNINVQDINIQDMDVQNINNAITLNKATSCQTDESRDAPGGDQNEALDEKDSMEKSKEKKKKKGKSRKKNKDTNLALKSDSIQKSKTTLDDKKRNVVVTFIGHINHGKTSLFDYICKTNEQKKEYGLITQNIRAFKATVRNNFAFTLVDTPGHEAFMPMRSRGVKISDLSILVISGDEGIQEQTVECIKLIKEFNIKIIIAITKVDIPNVDVDRIINDLLYHDITTELNGGEIQVVECSIYKEESIDKLLDAIYLESEFLNLQTNPDKKHEQAQGVVLDSYIDKNGIVSINLLQNGVLNINDHFYTGSSYGKVKILKDHLNKNIKSAYPSDPIKIIGYNKNSVPVAGDKFYVVENEALAKEIAEHNKNKMLTMEINNFAYDQTNMNRYKDFIISRENKIGGSSGILGENNLKNDIDGNMARDDNMARDDNMASDDNMARDGNRANNDNIASDDNMANDYDKIKETKMYTNNKAFQKDDFLKIHLNNANENVINMDPSTHIGKNEIKTIYSNYIIKCDKQGSIEVLKNCMLKLQKEDSICKIKNKIIYADIGNVASSDIKYATSFNAAIIAFGVKLSNDIKGSKNSKGSKNHNNYPIIYSNVLYELIENVEKEMEKKLSKKPMGELKGTAQILKVFNIAKLGKVAGCIVKKGTISINSNIRILRNDKVIYMGKIISIKIVKEEKTQVTEADECGIGFDNFLDFEPNDIIEAYEN
# modifications: bait human Fc-tagged dimer; N-glycosylation sequons mutated in Plasmodium baits
# B5: ADP169 (protein)
# chain: LIRNSNTPQAFLIPELNNNEKNEFNNNEKNEMNNNLNNEFNNNEENCDIQKIAEEMMENLLNENDMYTNIMLSLQNRLSDDYLCSEPKYENICIHEKDKISLSFPCSNPKYEKLIHKFTFKKLCNSKAAFNNALLKSFIEEDEEQNTFSLMLKQFKILLTCVDDELKDIYKESIDLLVDLKTSITELTQKLWSGKMVNVLKKREFLITGILCELRNGNKAPLISKSLEFENLGILKMNNEELLNEAYNAFSDYYYFFPYFIQKLLEKGGMIERLIKIHENLAKYRTKDMVNKINAQSKGEVLNNEDILNKLNAYKHYTKHGATSFIQSREVKIVNQNVNNDDTTKNQQQNVNNNEKLNNNNNNNNNQQVNNNNNNNNQQVNNNNNNNNNQVNNNNNNNNNQVNNNNYNNNNQVNNNNNNNQQVNNNNNYNNQLNNNNFNNNLQVNKNDKHVPKNNHATATHTNNILYNPLYSINPEKPKDIIKLLKDLIKYLHIVKFENNEPTTNIDEEGIRKLLENSFFDLNDDILIVRLLLKPQTVILTVIQSFMLMTPSPSRDAKAYCKKALINDQLVPTNDANILSEENELVNNFATKYVLIYEKMKLQELKEMEESKLKMKYSKTNLAALQVTNPQNNKDKNDASNKNNNPNNAATPLIAVVTDLSGEKTEDIINNNVDIATLSVGVQNTFQGP
# modifications: bait human Fc-tagged dimer; N-glycosylation sequons mutated in Plasmodium baits
# Tests used:
# Experiment in all cases: AVEXIS screen signal:noise (double-corrected)
# ADP156 = molecular target: T1, ADP156
# ADP369 = molecular target: ADP369
# ADP341 = molecular target: T2, ADP341
# ADP267 = molecular target: T3, ADP267
# ADP298 = molecular target: T4, ADP298
# ADP389 = molecular target: T5, ADP389
# ADP376 = molecular target: ADP376
# ADP098 = molecular target: T6, ADP098
binder,measurement,setting,value
B1,binding score,ADP156,5.67
same,binding score,ADP369,6.98
MNEAKEEKTNMRNNHLSRVTIEILPSDEDNDIFDINDALLDELIGINNI (also: human Fc-tagged dimer) [ADP256],binding score,ADP341,32.7
B2,binding score,ADP267,21.9
same,binding score,ADP298,7.9
B3,binding score,ADP389,5.5
B4,binding score,ADP376,10.1
B5,binding score,ADP098,11.2
